# Results as given in patent US20230296569A1, “Substance quantification in complex mixtures” (ISA Pharmaceuticals B.V., priority 2021, published 2023).
# Tests used:
# [1] = Peptide content (assay) of lyophilized drug product by UPLC-UV at 220 nm, conventional method (peptide as reference standard); type: physicochemical; conditions: conventional method (peptide as RS)
# Method: The purity including individual related substances and the assay of a DP-5P (5 peptides, SEQ ID NOs: 1-5) and DP-7P (7 peptides, SEQ ID NOs: 6-12) mixture were determined by reversed phase rapid HPLC (UPLC) using a mobile phase gradient of acetonitrile and water and UV detection at λ=220 nm.
# • Column: RP C18, e.g. Waters Acquity, BEH 130 PST (1.7 μm, 150×2.1 mm) • Sample matrix Eluent A : Eluent B=85:15 (v/v). • Sample concentration 100 μg/mL net peptide (of each drug substance mixture), duplicate • Injection volume: 5 μL • Column temperature: 65° C. • Sample temperature: 5° C. • Detection: UV (λ=220 nm) • Flow rate: 0.3 mL/min • Eluent A: 0.05%v/v TFA and 1%v/v Acetonitrile (ACN) in water • Eluent B: 0.05%v/v TFA in ACN
# The relative retention times (RRTs) assigned to peptides and related substances both in a DP-5P (SEQ ID NO: 1-5) and DP-7P (SEQ ID NO: 6-12) mixture was calculated with reference to the retention time of the peptide eluting in the middle (FIG. 1 and FIG. 2). That retention time was used as reference as the main peak of this drug substance was detected approx. in the center of the chromatogram. The related substances were determined by area normalization. The individual related substances were reported≥0.10%a/a. The total related substances were calculated as the sum of all individual related substances equal to or greater than a disregard limit of 0.0500%a/a. The purity was calculated as the difference between total related substances and 100%.
# The assay of each of the peptides was calculated against a reference standard solution containing either five peptides (DP-5P) or seven peptides (DP-7P) and was expressed in percent and in mg net peptide/vial. For this reference method, the absorption ratio between the reference substance and the analyte is 1, because the reference substance is the analyte itself.
# At T=0 months (TOM) the peptide content was measured using the conventional method of Example 2. From T=48 months (T48M) onwards the peptide content was measured with the conventional method of Example 2 and the method according to the invention of Example 3.
# [2] = Peptide content (assay) of lyophilized drug product by UPLC-UV at 220 nm, method according to the invention (USP reserpine reference standard, RRF); type: physicochemical; conditions: method according to the invention (USP RS)
# Text: The UPLC method similar to Example 1 was used for the quantification of analytes (i.e. the individual peptides) in mixtures DP-5P (SEQ ID NO: 1-5) and DP-7P (SEQ ID NO: 6-12) and for the determination of content uniformity of mixtures DP-5P and DP-7P (lyophilized product). The method is based on the use of an external reference standard. The relative response factor (ratio of molar extinction coefficients, RRF) against this external reference standard has been established for each peptide. The purity, individual related substances, and the assay of DP-5P and DP-7P were determined by reversed phase rapid HPLC (UPLC) using a mobile phase gradient of ACN/IPA and water and UV detection at λ220 nm.
# The following lyophilized peptide compositions were used: DP-5P comprising peptides represented herein by SEQ ID NO: 1-5 admixed at equal net weights of 0.40 mg of each peptide per vial (total amount of protein per vial being 2.00 mg) and 0.56 mg TFA per vial; and DP-7P comprising peptides represented herein by SEQ ID NO: 6-12 admixed at equal net weights of 0.40 mg of each peptide per vial (total amount of protein per vial being 2.80 mg) and 0.96 mg TFA per vial. The following chemicals were used: Acetonitrile, (Biosolve, 01204102); UPLC water, (Type 1, milli-Q); trifluoroacetic acid, (Chem Lab, CLoo.2094.0001), 2-propanol, (UPLC/MS grade, Biosolve, 16264102); Reserpine, (USP, Sigma Aldrich, 1601000). The following equipment was used: QuanRecovery vials, (Waters, 186009186); UPLC pump equipped with a gradient system, autosampler, and UV detection (Waters Acquity or equivalent) and mixer volume 425 μL.
# • Mobile phase A: 0.1% (v/v) TFA in water • Mobile phase B: 0.1% (v/v) TFA in 70/30 ACN/IPA • Diluent A: 0.05% (v/v) TFA in water • Diluent B: 0.05% (v/v) TFA in ACN • Blank solution: 80/20 (v/v) diluent A/diluent B • Purge solvent: 80/20 (v/v) water/ACN • Needle wash: 0.05% (v/v) TFA in 80/20 (v/v) water/ACN
# 5.00 mg Reserpine reference material was accurately weighed and added into a 50 mL volumetric flask. 40.0 mL of blank solution was added, by means of a volumetric pipette. The solution was stirred for 10 min, by means of a magnetic stirrer, until fully dissolved. The solution was diluted to volume with blank solution and mixed well.
# Transfer of 2.0 mL, by means of a volumetric pipette, of stock reference solution 1 into a 20 mL volumetric flask. Diluted to volume with blank solution and homogenized.
# This sample preparation was setup for lyophilized products DP-5P and DP-7P in an initially sealed container. Before opening and dissolving the drug product, the vials were equilibrated at room temperature for at least 1 hour. The content of the vial was dissolved with 0.8 mL of diluent B, and stirred for 20 min, using a magnetic stirrer. 3.2 mL of diluent A were added. The solution was stirred well for 20 min, using a magnetic stirrer. After dissolving the content of the vial, the sample vial was kept on the lab bench for 30 minutes. The solution was stirred briefly and transferred into an HPLC vial.
# • Column: Advance Bio Peptide Map (2.7 μm, 250 x 2.1 mm) • Sample matrix 0.05%v/v TFA in ACN : water (1:4 v/v) • Sample concentration 100 μg/mL net peptide (of each drug substance), duplicate • Injection volume: 10 μL • Column temperature: 40° C. • Sample temperature: 5° C. • Detection: UV (λ=220 nm) • Flow rate: 0.2 mL/min • Run time: 65 min • Purge solvent: 80/20 (v/v) water/ACN • Needle wash: 0.05% (v/v) TFA in 80/20 water/ACN (v/v) (20 s) • Seal wash: 90/10 (v/v) water/MeOH • Elution mode: Gradient elution • Eluent A: 0.1%v/v TFA in water • Eluent B: 0.1%v/v TFA in ACN/IPA (70:30 v/v)
# The RRF was determined for all 12 peptides, enabling the quantification of each peptide against a reserpine as shown above. For the determination, the absorbance of each peptide in a solution comprising said peptide at a known concentration, and of a reference standard solution comprising reserpine at a known concentration, were measured at 220 nm. […]
Sequence,"Assay (mg/vial) ([1]; DP-7P batch, T0M)","Label claim (% target 0.40 mg/vial) ([1]; DP-7P batch, T0M)","Assay (mg/vial) ([1]; DP-7P batch, T48M)","Label claim (% target 0.40 mg/vial) ([1]; DP-7P batch, T48M)","Assay (mg/vial) ([1]; DP-7P batch, T54M)","Label claim (% target 0.40 mg/vial) ([1]; DP-7P batch, T54M)","Assay (mg/vial) ([1]; DP-7P batch, T60M)","Label claim (% target 0.40 mg/vial) ([1]; DP-7P batch, T60M)","Assay (mg/vial) ([2]; DP-7P batch, T48M)","Label claim (% target 0.40 mg/vial) ([2]; DP-7P batch, T48M)","Assay (mg/vial) ([2]; DP-7P batch, T54M)","Label claim (% target 0.40 mg/vial) ([2]; DP-7P batch, T54M)","Assay (mg/vial) ([2]; DP-7P batch, T60M)","Label claim (% target 0.40 mg/vial) ([2]; DP-7P batch, T60M)",further results
HYCYSLYGTTLEQQYNKPLCDLLIR (Peptide 7),0.4393 mg/vial,107%,0.4279 mg/vial,107%,0.4219 mg/vial,105%,0.4222 mg/vial,106%,0.4036 mg/vial,101%,0.3980 mg/vial,99%,0.3967 mg/vial,99%,–
LPQLCTELQTTIHDIILECVYCKQQLLRREVY (Peptide 9),0.4328 mg/vial,108%,0.4325 mg/vial,108%,0.4262 mg/vial,107%,0.4361 mg/vial,109%,0.3901 mg/vial,98%,0.3718 mg/vial,93%,0.3700 mg/vial,93%,–
MHQKRTAMFQ QERPRKLPQLCTELQTTIHD (MHQKRTAMFQQERPRKLPQLCTELQTTIHD; Peptide 10),0.4212 mg/vial,105%,0.4329 mg/vial,108%,0.4271 mg/vial,107%,0.4362 mg/vial,109%,0.4060 mg/vial,101%,0.3966 mg/vial,99%,0.3945 mg/vial,99%,–
RDLCIVYRDGNPYAVCDKCLKFYSKI (Peptide 11),0.4235 mg/vial,106%,0.4293 mg/vial,107%,0.4192 mg/vial,105%,0.4209 mg/vial,105%,0.3866 mg/vial,97%,0.3815 mg/vial,95%,0.3788 mg/vial,95%,–
YGTTLEQQYNKPLCDLLIRCINCQKPLCPEEK (Peptide 12),0.4261 mg/vial,107%,0.4323 mg/vial,108%,0.4215 mg/vial,105%,0.4219 mg/vial,105%,0.4132 mg/vial,103%,0.4034 mg/vial,101%,0.4010 mg/vial,100%,–
LYCYEQLNDSSEEEDEIDGPAGQAEPDRAHYNIVT (Peptide 2),–,–,–,–,–,–,–,–,–,–,–,–,–,–,"Assay (mg/vial) ([1]; DP-5P batch, T0M): 0.4085 mg/vial; Label claim (% target 0.40 mg/vial) ([1]; DP-5P batch, T0M): 102%; Assay (mg/vial) ([1]; DP-5P batch, T48M): 0.4141 mg/vial; Label claim (% target 0.40 mg/vial) ([1]; DP-5P batch, T48M): 104%; Assay (mg/vial) ([1]; DP-5P batch, T54M): 0.4149 mg/vial; Label claim (% target 0.40 mg/vial) ([1]; DP-5P batch, T54M): 104%; Assay (mg/vial) ([1]; DP-5P batch, T60M): 0.4174 mg/vial; Label claim (% target 0.40 mg/vial) ([1]; DP-5P batch, T60M): 104%; Assay (mg/vial) ([2]; DP-5P batch, T48M): 0.3950 mg/vial; Label claim (% target 0.40 mg/vial) ([2]; DP-5P batch, T48M): 99%; Assay (mg/vial) ([2]; DP-5P batch, T54M): 0.3932 mg/vial; Label claim (% target 0.40 mg/vial) ([2]; DP-5P batch, T54M): 98%; Assay (mg/vial) ([2]; DP-5P batch, T60M): 0.3880 mg/vial; Label claim (% target 0.40 mg/vial) ([2]; DP-5P batch, T60M): 97%"
RCINCQKPLCPEEKQRHLDKKQRFHNIRGRWT (Peptide 4),–,–,–,–,–,–,–,–,–,–,–,–,–,–,"Assay (mg/vial) ([1]; DP-5P batch, T0M): 0.3936 mg/vial; Label claim (% target 0.40 mg/vial) ([1]; DP-5P batch, T0M): 98%; Assay (mg/vial) ([1]; DP-5P batch, T48M): 0.3937 mg/vial; Label claim (% target 0.40 mg/vial) ([1]; DP-5P batch, T48M): 98%; Assay (mg/vial) ([1]; DP-5P batch, T54M): 0.3911 mg/vial; Label claim (% target 0.40 mg/vial) ([1]; DP-5P batch, T54M): 98%; Assay (mg/vial) ([1]; DP-5P batch, T60M): 0.3913 mg/vial; Label claim (% target 0.40 mg/vial) ([1]; DP-5P batch, T60M): 98%; Assay (mg/vial) ([2]; DP-5P batch, T48M): 0.3820 mg/vial; Label claim (% target 0.40 mg/vial) ([2]; DP-5P batch, T48M): 96%; Assay (mg/vial) ([2]; DP-5P batch, T54M): 0.3966 mg/vial; Label claim (% target 0.40 mg/vial) ([2]; DP-5P batch, T54M): 99%; Assay (mg/vial) ([2]; DP-5P batch, T60M): 0.3842 mg/vial; Label claim (% target 0.40 mg/vial) ([2]; DP-5P batch, T60M): 96%"
KQQLLRREVYDFAFRDLCIVYRDGN (Peptide 8),0.4357 mg/vial,109%,0.4323 mg/vial,108%,0.4289 mg/vial,107%,0.4294 mg/vial,107%,0.3980 mg/vial,99%,0.3928 mg/vial,98%,0.3900 mg/vial,98%,–
